Source: US5493008A, “Two non-contiguous regions contribute to nidogen binding to a single EGF-like motif of the laminin γ1 chain” (The University Of Virginia Patent Foundation, priority 1994, dated 1996)
Numbering of substitutions follows the chain as printed. Where two headings read alike, the source gives them in different places. Where a SMILES comes first, the peptide text is derived from it. Where no end group is shown, it is not given here. The star is where a group is joined. Nle‑OMe = norleucine methyl ester coupled to carboxyl groups via carbodiimide, CCCC[C@H](N*)C(=O)OC; Succinimide(1-Et,3-yl) = CCN1C(=O)CC(*)C1=O

What was measured:
[1] = target: T1, recombinant nidogen (Mus musculus (Mouse)) (UniProt P10493); test: radioligand competition assay
T1 sequence: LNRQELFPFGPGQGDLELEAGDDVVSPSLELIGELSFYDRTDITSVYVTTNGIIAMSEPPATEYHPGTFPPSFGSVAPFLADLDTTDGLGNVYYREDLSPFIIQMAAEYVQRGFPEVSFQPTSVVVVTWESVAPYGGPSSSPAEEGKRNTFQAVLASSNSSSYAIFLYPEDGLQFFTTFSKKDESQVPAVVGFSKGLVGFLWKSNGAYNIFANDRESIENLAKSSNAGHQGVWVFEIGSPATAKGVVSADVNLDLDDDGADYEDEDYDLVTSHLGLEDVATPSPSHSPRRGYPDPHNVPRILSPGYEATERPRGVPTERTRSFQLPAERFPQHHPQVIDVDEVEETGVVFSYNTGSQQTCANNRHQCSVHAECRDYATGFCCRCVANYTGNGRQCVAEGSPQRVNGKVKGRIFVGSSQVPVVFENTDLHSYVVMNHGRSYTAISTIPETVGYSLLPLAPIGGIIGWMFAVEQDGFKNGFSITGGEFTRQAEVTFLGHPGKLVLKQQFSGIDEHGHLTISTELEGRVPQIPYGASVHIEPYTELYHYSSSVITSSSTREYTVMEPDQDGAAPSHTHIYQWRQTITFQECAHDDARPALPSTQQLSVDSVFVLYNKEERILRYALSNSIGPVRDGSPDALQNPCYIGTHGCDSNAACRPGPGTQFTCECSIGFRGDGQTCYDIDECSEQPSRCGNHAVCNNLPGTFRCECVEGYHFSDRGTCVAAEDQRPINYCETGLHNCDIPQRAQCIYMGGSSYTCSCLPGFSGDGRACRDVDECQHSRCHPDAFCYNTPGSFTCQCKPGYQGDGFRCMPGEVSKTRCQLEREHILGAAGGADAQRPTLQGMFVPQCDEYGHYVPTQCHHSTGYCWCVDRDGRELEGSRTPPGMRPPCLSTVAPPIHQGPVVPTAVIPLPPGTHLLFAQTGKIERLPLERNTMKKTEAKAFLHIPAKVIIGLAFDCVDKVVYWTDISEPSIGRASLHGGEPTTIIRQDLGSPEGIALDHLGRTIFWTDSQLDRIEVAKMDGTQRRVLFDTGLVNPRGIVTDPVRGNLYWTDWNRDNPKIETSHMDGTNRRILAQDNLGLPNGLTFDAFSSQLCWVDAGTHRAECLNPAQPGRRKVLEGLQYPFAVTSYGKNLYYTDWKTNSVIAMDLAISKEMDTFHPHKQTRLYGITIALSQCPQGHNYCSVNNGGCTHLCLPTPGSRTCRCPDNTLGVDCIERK

[2] = target: T1, recombinant nidogen (Mus musculus (Mouse)); test: radioligand competition assay: inhibitor varied, 0.2 nM recombinant nidogen, 125I-laminin fragment P1
nidogen = target: T2, nidogen (Mus musculus, UniProt P10493); test: Radioligand competition assay: inhibition of 125I-laminin fragment P1 binding to nidogen; conditions: for IC50: Table IV, recombinant mutants and chimeric structures of γ1III4, read-out: IC50 (inhibitory activity for laminin-nidogen binding)
T2 sequence (P10493 29-1245): T1 sequence
Procedure: A radioligand competition assay was used for measurement of relative binding affinities (Mann K. et al. (1988), Eur. J. Biochem., 178, 71-80; Fox, J. W. et al. (1991), EMBO J., 10, 3137-3146). A fixed concentration of recombinant nidogen (0.2 nM) was incubated overnight at 4° C. with inhibitors at varying concentrations, followed by the addition of ^125 I-labeled laminin fragment P1 (0.01 nM; 10,000-20,000 c.p.m.) for the same incubation period. Bound and non-bound fragment P1 was then separated by antibodies against nidogen. Competitor concentrations causing 50% inhibition (IC50) were determined from dose-response profiles. […] IC50 values compared from different assays were normalized to a single fragment P1 value.

recombinant nidogen [3] = target: T3, recombinant nidogen (Mus musculus (Mouse), UniProt P10493); test: radioligand competition assay: inhibitor varied, 0.2 nM recombinant nidogen, 125I-laminin fragment P1
T3 sequence: T1 sequence
Procedure: (§1) A radioligand competition assay was used for measurement of relative binding affinities (Mann K. et al. (1988), Eur. J. Biochem., 178, 71–80; Fox, J. W. et al. (1991), EMBO J., 10, 3137–3146). A fixed concentration of recombinant nidogen (0.2 nM) was incubated overnight at 4° C. with inhibitors at varying concentrations, followed by the addition of ^125I-labeled laminin fragment P1 (0.01 nM; 10,000–20,000 c.p.m.) for the same incubation period. Bound and non-bound fragment P1 was then separated by antibodies against nidogen.

recombinant nidogen [4] = target: T3, recombinant nidogen; test: as above; remark: listed apart in the source
Procedure: as §1

recombinant nidogen [5] = target: T3, recombinant nidogen; test: as above; remark: listed apart in the source
Procedure: as §1

recombinant nidogen [6] = target: T3, recombinant nidogen; test: radioligand competition assay
Procedure: as §1

synthetic loop a,b, non-oxidized (792-815) (peptide)
fold higher IC50 than fragment P1 [1]: 5000 fold
IC50 [2]: 400 nM

γ1III4ab3cd (from UniProt P02468)
fold higher activity than synthetic oxidized loop a,b [1]: 3 fold
further fold decrease in activity against modification of Tyr819 [1]: 30 fold
IC50 [2]: 80 nM

γ1III3ab4cd (from UniProt P02468)
IC50 [2]: 1100 nM

γ1III3-5Δ4 (from UniProt P02468)
IC50 [2]: > 3200 nM

IOPNAVGN (S, 799-806) (peptide)
fold loss in activity [1]: 2 fold

CC[C@H](C)[C@@H]1NC(=O)[C@@H](NC(=O)[C@H](CCCCN)NC(=O)[C@H](CC(C)C)NC(=O)[C@@H]2CSSC[C@H](NC(=O)[C@@H](N)CCC(N)=O)C(=O)N[C@@H](CC(N)=O)C(=O)N[C@@H](CC(=O)O)C(=O)N[C@@H](CC(N)=O)C(=O)N[C@@H]([C@@H](C)CC)C(=O)N[C@@H](CC(=O)O)C(=O)N3CCC[C@H]3C(=O)N[C@@H](CC(N)=O)C(=O)N[C@@H](C)C(=O)N[C@@H](C(C)C)C(=O)NCC(=O)N2)CSSC[C@@H](C(=O)N[C@@H](CC(=O)O)C(=O)O)NC(=O)[C@H](Cc2ccc(O)cc2)NC(=O)[C@H](Cc2ccccc2)NC(=O)CNC(=O)[C@H](C)NC(=O)[C@H]([C@@H](C)O)NC(=O)[C@H](CC(N)=O)NC(=O)[C@H](Cc2ccc(O)cc2)NC1=O [loop a,c, oxidized, QCNDNIDPNAVGCLKC1YNTAGFYCD] (HELM PEPTIDE1{Q.C.N.D.N.I.D.P.N.A.V.G.C.L.K.C.I.Y.N.T.A.G.F.Y.C.D}$PEPTIDE1,PEPTIDE1,2:R3-13:R3|PEPTIDE1,PEPTIDE1,16:R3-25:R3$$$V2.0; N-terminus and C-terminus assumed)
IC50 higher / less active than fragment P1 (nidogen; relative to laminin fragment P1): 300 fold
higher inhibitory activity compared with loop a,b (nidogen; relative to synthetic loop a,b peptide): 20 fold

γ1III4N802-S: recombinant γ1III4 with Asn802 mutated to Ser
reduction in activity of mutant (nidogen; relative to wild-type γ1III4): ~ 100,000 fold

T1, 792-809 (peptide)
IC50 [2]: 500 nM

γ1III4Y819-A: recombinant γ1III4 with Tyr819 mutated to Ala
IC50 (nidogen): 3 nM

NIDPNA [NIDPNA (S, 798-803)]
binding result (recombinant nidogen [3]): no binding (tested: >460,000 nM)

B1: γ1III4 (other)
chain: PCQCNDNIDPNAVGNCNRLTGECLKCIYNTAGFYCDRCKEGFFGNPLAPNPADKCK
modifications: disulfide (positions not given here); not fully specified (bridges); also: four disulfide-bonded loops, pairing not given here
IC50 (recombinant nidogen [4]): 0.05 nM

B2: γ1III4D800-N (other)
chain: B1 chain with D9N
IC50 (recombinant nidogen [4]): 1000 nM

B3: γ1III4Y825-A (other)
chain: B1 chain with Y34A
IC50 (recombinant nidogen [4]): 0.06 nM

PCQCN [E3, 792-796]
binding result (recombinant nidogen [3]): no binding (tested: >96,000 nM)

DNIDPNAVGNCNRLTGECL [E1, 797-815]
IC50 (recombinant nidogen [3]): 530 nM

B4: γ1III3-5Δ4: recombinant deletion mutant joining repeats 3 and 5, lacking EGF-like repeat 4 (protein)
chain: PCPCPGGSSCAIVPKTKEVVCTHCPTGTAGKRCELCDDGYFGDPLGSNGPVRLCRACACNPYGTVQQQSSCNPVTGQCQCLPHVSGRDCGTCDPGYYNLQSGQGCE
IC50 (nidogen): > 3200 nM
inhibitory activity in words (nidogen; laminin-nidogen binding competition): without measurable activity

AVGNCNR [Th1, 803-809]
binding result (recombinant nidogen [3]): no binding (tested: >30,000 nM)

B5: synthetic loop a,b, amidated (792-815) (peptide)
peptide: PCQCND(Nle‑OMe)NTD(Nle‑OMe)PNAVGNCNRLTGE(Nle‑OMe)CL
modifications: not fully specified; cysteine pairing not given here; also: carboxyl groups of Asp and Glu blocked with norleucine methyl ester (amidation), sites not placed
IC50 (recombinant nidogen [3]): > 5400 nM

NVDPSAS
binding result (recombinant nidogen [3]): no binding (tested: >290,000 nM)

B6: γ1III4ab3cd, reduced (other)
chain: PC(Succinimide(1-Et,3-yl))QC(Succinimide(1-Et,3-yl))NDNIDPNAVGNC(Succinimide(1-Et,3-yl))NRLTGEC(Succinimide(1-Et,3-yl))LKC(Succinimide(1-Et,3-yl))PTGTAGKRC(Succinimide(1-Et,3-yl))ELC(Succinimide(1-Et,3-yl))DDGYFGDPLGSNGPVRLC(Succinimide(1-Et,3-yl))R
IC50 (recombinant nidogen [4]): 520 nM

NVDPNAV
IC50 (recombinant nidogen [5]): 1200 nM

NVDPSAV
binding result (recombinant nidogen [3]): no binding (tested: >180,000 nM)

B7: γ1III3-5, Lys acetylation (other)
chain: PCPCPGGSSCAIVPKTKEVVCTHCPTGTAGKRCELCDDGYFGDPLGSNGPVRLCRPCQCNDNIDPNAVGNCNRLTGECLKCIYNTAGFYCDRCKEGFFGNPLAPNPADKCKACACNPYGTVQQQSSCNPVTGQCQCLPHVSGRDCGTCDPGYYNLQSGQGCE
modifications: lysine amino groups acetylated with acetic acid anhydride
fold decrease in binding activity against unmodified γ1III3-5 (recombinant nidogen [6]): 7 fold
IC50 (recombinant nidogen [3]): 0.27 nM

B8: recombinant fragment γ1III3-5 (other)
chain: B7 chain
IC50 (recombinant nidogen [3]): 0.04 nM

B9: γ1III3-5, Asp/Glu amidation (other)
chain: B7 chain
modifications: carboxyl groups (Asp, Glu) activated with 1-ethyl-3-dimethylaminopropylcarbodiimide and blocked by norleucine methylester
IC50 (recombinant nidogen [3]): 2.1 nM

NIDPNAVGN [NIDPNAVGN (S, 798-806)]
IC50 (recombinant nidogen [3]): 600 nM

NVDPNAS
binding result (recombinant nidogen [3]): no binding (tested: >160,000 nM)

NIDPNAV [heptapeptide NIDPNAV (S, 798-804)]
IC50 (recombinant nidogen [5]): 900 nM
IC50 (recombinant nidogen [3]): 800 nM
